From the DeepSol protein solubility set

Assay: soluble on expression in E. coli; label from the status in PepcDB or PDB records

Sequence	soluble on expression in E. coli
MESVTRIKVRYAETDQMGVVHHSVYAVYLEAARVDFLERAGLPYHRVEARGVFFPVVELGLTFRAPARFGEVVEVRTRLAELSSRALLFRYRVEREGVLLAEGFTRHLCQVGERAARIPEDIYRALSVLHLK	soluble
METETATTPTGNTEPTAAASAEPPKSDKVTVRLRNIADAPVLKNKKMVVNPTDTVASFILKLRKLLNIQANNSLFLYIDNTFAPSPDTTFETLSRCYSVKITDKEILELQYSITPAYG	soluble
METKDLIVIGGGINGAGIAADAAGRGLSVLLLEAQDLACATSSASSKLIHGGLRYLEHYEFRLVSEALSERETLLKMAPHIIFPMRFRLPHQPHLRPAWMIRIGLFMYDNIGKRVSLPASKGLKFGADSVLKPELKQGFEYSDCWVDDARLVVLNAQEVAKRGGEVRTRTKVTRARREQGVWIVDAVDSLTGETFTWRAKGLVNATGPWVKEFFDDGLQLKSPYGIRLIKGSHIVVPRVHNQPQAYILQNKDHRIVFVIPWQDDYSIIGTTDVEYKGNPHDVKIDDNEVGYLLDVYNDHFKQQLTRDDIVWTYSGVRPLCDDESDSPQAITRDYTLSVDDDNGQAPLLSVFGGKLTTYRKLAEHALDKLHKYYPQAGKAWTKDAVLPGGDIAGTRDDYAAALRRRFNLPESLTRRYSRTYGSNSELILANVKGLSDLGEDFGHDLYEAELRYLVEKEWAVTLDDVIWRRTKLGMRFDDAQKQRISDWLVSYRQQQMAKAGLEHHHHHH	soluble
METKQSMDYIIKGPGGTTKPIAPKLITVNPLNIIIESNSGQIDKTLELKNIYPCRIAFRVRTNGPTRYTVCPSKGFLSNGEKVAIQITLIDGTKYQSNHQFIVQAMPSPGDFADRKFIWKQPNFLGIFTNTRVKTMRPAQSLPKSNPKSPAKVSTPTDSGMSSPVASSESLVTPSVPSWSKSPSSPIDHGKFAENINDLSVQVKKAIDEKNTRTSEMVSVVNQIKAVEVDLDRQAQLVNELSERVKRGEIQYSNLVMHERSLRVELGRLKNNEAESIGQ	not soluble
METNFIGDDYGPLFHYQYRLIVIGDSTVGKSSLLRYFTEGKMAEISDPTVGVDFYARMIELRPGYRVKLQLWDTAGQEKFRSITKSYYRNSVGVLAIYDTTNRESFEHVENWVKEAALNLGGPSPSKCVFQLVGTKSDMDSQRQVNYEEGEYFAKYHKMKFIETSSRTGDNVNEAFHMIAQEIQNRVDDGELRPVDGWEGLKTGIMRSQSVCLSERSFPQNSSAGACGC	not soluble
METTLVIIRGNSGSGKTTLAQALQRRVGHHTLLVSQDVVRRDMLMSHDYPGNISIGLIEQIVCYGLGRVPVVIVEGILARDRYGKMLARLSQSFPRVLTYYFEVSFATTLARHQKRHRDFGVEDMRRWWLPHDTLGVANEVLIGEQQDLTTEVQQIMTTIHDCDLEHHHHHH	not soluble
METYDVLVIGGGPGGSTAARYAAKYGLRTLMIEKRPEIGSPVRCGEGLSKGILNEADIKPDKSFIANEVKGARIYGPSEKRPIILQSEKAGNEVGFVLERDKFDKHLAALAAKAGADVWVKSPALGVIKEDGKVAGAKIRHENNVVEVRAKMVIAADGFESEFGRWAGLKSVILARNDIISALQYRMINIDVDPDYTDFYLGSIAPGGYIWVFPKGEGMANVGIGSSINFIHNRLELKNYLDRFIENHPGLKKGQDIQLVTGGVSVSKVKMPITMPGLMLVGDAARLIDPITGGGIANAIVSGMYAAQVSKEAIESNDYSPQMMGKYEKLVKDRFERKHLRNWVAKEKLAQLSDETLDKLVDIVSEQVLTTISVEAILKAIAEKYPEVVKELEDLILEHHHHHH	soluble
MEVEVGQIVNTHGIKGEVKVKSNSDFTETRFQPGEQLLVKHNNTEIVYTVASYRIHKGFHMLRFEGINNINEIEHLKGDYIYQERDHQDIELGEHEYYYSDIIGCTVFKDDDTPIGRVINIFETGANDVWVVKGEKEYLIPYIEDVVKDIDIETKTIKITPMEGLLDLEHHHHHH	soluble
MEVSTSYCTPAVNFKYGSFQDSDVSMREDDLFRMGSYNSQGYYADGTHLDGSIGEEDETSSGSNDQHMDFEEDDFDMESSMTEDLVDEDEEEEDEEDNDEWTNQKRTDNQNSVAYYAAMEMLRIRFPFQSIAIRISDFCCLQEKDLLNDTMIDFYLNHIVEHVLPDSNGSNVTVLPSIFWHNLSLRQHAFDSEDEKMMSDEQKMDLKFGDLHDFVADFDLQDFDYIVVPVNEWEHWSLAVICHPFTAQARTVIFDSQLTADLNNLQNMATLIESFMKYSYEKRTGNAMPFPLPCILPQRMPQQTNNFDCGIFIAEFARRFLLSPPKDPATISLCFHPLATLL	not soluble
MEVVIIAFLTQKEFEDLGFDEVEDFEKMEKRASHAVNLYCRNRYDYKDLKKEIALVQKAVKRAIAYQIAYLNDSGVMTAEDKQSFAGISLGRTSISYTVGHGQGSQQKTLADRFNLCLDAENELLAVGLGYTGISYDR	not soluble
MEYLNVAEIKALLNSTISKLNPRYTSNYMIVTAILTGARLSEIAGLTWNDINFNFNTININKSYDYFAKSFKPTKNKSSNRIIKINNTLCDVLKELRTNNTDLVFKNKRGLIPTSNAVNKALRARLEELNINRRNFHFHSLRHSHVAFLLSQGIDIYPIAQRLGHSDITTTTRTYAYLIEEYKDKNDAIIIAGLDKLEHHHHHH	soluble
MEYYFTAQKLAVGYDNRPLIENIDFSLKRGEILTLIGPNGAGKSTILKSIARQLSLVSGTIYLDKSDVVTMNGNEFAKKMAVVLTDKLKTELMTCYDVVATGRYPYTGRFGVLSDEDKKAVDEAMELVNVSQIKDKDFTKISDGQRQRVMLSRAICQQPEIIVLDEPTSYLDIKYKLEFLSILQRLKRQKNLTVIMSLHELDMAKRVSDHILCIDGRYVDRYGTPEEVFTDQYVSGLFGITAGSLEHHHHHH	not soluble
MFALVLAAGRSRRFDGDKRKALLPCGRTLLTACLETAGKVFTETGVVLREDDEVQTLGIPSKVTIIRCKHADLGMGHSLAAGIAAALNSSADAVAILLADMPWIEPQTLRDLARLADPQRIALPMHEGQRGHPVIIGRRFWPRLLALEGDQGAKALITNNPAFCDVMNCDDPGVLRDADTRSALAIACRQHLTAGRDLEHHHHHH	not soluble
MFARNFFKGGTKVPHFKNTAECETVKMGVPEKVVIPMLQHVGAPCEPCVKKGDTVRVGQVIGNSDKYISSPIHSSVSGTVNDVAPMLFAGGIYVTAVEIKTDGKQEIYEGIKPPSFSNSKEFISAIRESGLVGLGGAGFPAHVKLSPPPDKKIDTLIINAAECEPYITSDYREIIENSWNVVSGINIIMEILGIENVLIGIEDNKPEAIKEMTRVAATDDRINVIKLKSRYPQGAEKMLIYATTGRKVPPGKLPADVGVIVMNVNSVSFISEYIKTGMPLIKKRVTVDGPSVKRPGNVEVLIGTPISEVFSFCGGFGIVPKKILMGGPMMGIAQYTLDTPVLKHTNALLAFDETTAVLPKEQACIRCGRCVRACPMNLLPLYLNNNSIRGNIEELNRYHVMDCIECGSCAYVCPAKINLVQSIRLGKAQVRQAAAKGGN	not soluble
MFAVDPQMNQTVNSPKGQLLLRTLAMPADTNANGDIFGGWIMSQLDLAGGILAKEISCGRIVTVSVSSITFKKPVKVGDVVCCYGECTKIGRTSMSINLEVWVKPVKEEGVGERFQVCEATFNYVAIDANGRPRAISLSNGSQKSSLEHHHHHH	not soluble
MFDIGFGELLLVMVLGLIVLGPERLPVAVRTVASWIRTLRSLASTVQNELSQELKLQEFQESLKKVEKASLQNLSPELKASMDELKDAAEAMKRGYTETPSPQKSDDPKKSGDHSATVEPQSNIPLNDPEAAYDGVIEAETAVRPADSQQKPENAAVAENHNDGRHATSDEAVGNNNVKPEQSQPSAASARQPSDSRLEHHHHHH	not soluble
MFDKLKENEELWDLFTRKEEYSVTFRDAYERFPYYLSSHRNIFEPRVSKFLVENGLKPQYPDGKKFAVCLTHDIDAIYPDKLYPIVGPVKALSRGKLAEAVKAPFSRVNRKWNPCWNFREILALEAKYNAKSSFYFLALTSEETDFNYNIKDLETELGFISDSGWEVGLHGGHESYNSLEDIKEKKRRLEEVLGKKVVGYRNHYLRFRVPDTWELLSKAGFKYDTTFGYSDCAGFRNGMCHPYRPFNLNEGRQIDILEIPLVIMDRSLLKDYMRLNVKKAWECTKHLINTVEKYNGVITILWHNNMCIDGENLRYYEKVLEYCAEKNAWITSGEEIYNWWTSKIEPGNLEHHHHHH	not soluble
MFDRYESGERAVLVHINFTQEGEWEDLAEFEMLVSSAGVETLQVVTGSRQSPHPKYYVGEGKAQEIATTVHLTGAEIVIFNHSLSPAQERNLEALCKCRVLDRTGLILDIFAQRARTHEGKLQVELAQLRHISTRLIRGWTHLERQKGGIGLRGPGETQLETDRRLLRERIKAILRRLEKVAKQREQGRRARNRAEIPTISLVGYTNAGKSTLFNRITEAGVYAADQLFATLDPTLRKMELADVGPAILADTVGFIRHLPHDLVAAFKATLQETQEADILLHVVDASDERFRENIQAVHEVLEEIDAHEVPTLVVMNKIDNLESQTPRIERDEEGVPRAVWVSAMEGLGIELLFDALTERLASQMVEHQLRIPPQYQGRFRSTFFQMKCIQREEYDQDGNLLIDIRMQQVDWSRLEKREGAVLTDFIVTLEHHHHHH	not soluble
MFENESLSFEEQTIIQAAERYVQQELANEASGHDWWHIYRVTQLAKTIAEKEQANLFLCILTALLHDIGDEKFNESEEAGLLKVQQWLEANNVSTEQTNHILSIIANMSFKGGNTGKTVTTLEGKVVQDADRLDAIGAIGIARVMAYSGNKGRLIHDPHKQPREQLTQEEYRNGEDTAIMHFYEKLLKLKEQMNTNYGRLLAEKRHQFMELYLEEFYQEWDGHRLEHHHHHH	soluble
MFFLQMSGFPGSGKSTVSKYIAKLTGAVIIDHDVLKSALLKSLKVKGIESTIVGGLAYDAEWVLIDSYLEQGHSVILDSPCLYEGMVEKGIELSNKHGVKYKYIECYLNDMEEINRRLQTRKRMISQIEKVESEVGFKKWLNGSKRPSNNEYLIVDSSKPIEQYVEKMMDYMTK	not soluble
MFFTDESGIHHDPSKVRRLGLYNVPVDYPSRKLNVLASIPLFDGVPCFMFTYSNVNSEIFAEFLRLFRNSGPIVLILDNAKFHKNAYVFSVASQLGITLLFLPPYSPDLNPIELVWKDLKRWVNTYYNLEYTLDSMEEEFYYLFLRECSQTVMKFKKRL	soluble
